The values that follow come from patent US20250042970A1 (AURINIA PHARMACEUTICALS, published 2025).

Experiment [1] concerns the target T1, human APRIL (Examples 21-23) (human, UniProt O75888 105-250).
T1 construct: also called huAPRIL
T1 sequence: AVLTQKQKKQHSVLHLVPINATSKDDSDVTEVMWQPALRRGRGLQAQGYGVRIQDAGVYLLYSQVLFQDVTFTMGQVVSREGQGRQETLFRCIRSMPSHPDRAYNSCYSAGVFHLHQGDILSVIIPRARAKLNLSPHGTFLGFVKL
The experiment is described as follows: ratio of KD values of Table 11, assay not stated (Example 21); reference Atacicept.

Experiment [2] addresses T2, human BAFF (Examples 21-23) (human, UniProt Q9Y275 134-285).
T2 construct: also called huBAFF
The description is as above.

The target of experiment [3] is T1, human APRIL (Examples 21-23). The experiment is described as follows: colorimetric ELISA, inhibition curves. The source says:
(§1) A colorimetric ELISA was used to assess the binding of BAFF/APRIL binding molecules to human and murine BAFF and APRIL. Inhibition curves based on binding to soluble human and murine BAFF and APRIL were used to determine the IC₅₀ values for binding of the exemplary BCMA CRD variant-IgG4 fusion protein BAv9-1 CRD-IgG4 Fc, Atacicept and a different recombinant TACI-Fc fusion protein RC18 (also known as Telitacicept).
(§2) FIG. 34A and FIG. 34B show the inhibition curves of the three different BAFF/APRIL binding molecules to murine BAFF (FIG. 34A) and murine APRIL (FIG. 34B). Compared to the IC₅₀ values determined for Atacicept and RC18 (Telitacicept), the IC₅₀ of the exemplary BCMA CRD variant-IgG4 fusion protein BAv9-1 CRD-IgG4 Fc was orders of magnitude lower for both murine BAFF and murine APRIL. The IC₅₀ values for BAv9-1 CRD-IgG4 Fc for murine BAFF and murine APRIL were 1.5 nM and 2.7 nM respectively.
On the technique in general: In an ELISA, binding on a coated surface is turned into a signal by an enzyme label.

Experiment [4] has as its target T3, murine APRIL (Examples 22-23) (mouse, UniProt Q9D777 96-241).
T3 sequence (looked up): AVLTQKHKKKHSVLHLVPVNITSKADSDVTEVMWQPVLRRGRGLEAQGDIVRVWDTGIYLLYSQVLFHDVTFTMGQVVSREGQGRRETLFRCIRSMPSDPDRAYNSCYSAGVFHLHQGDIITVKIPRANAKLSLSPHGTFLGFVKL
The experiment is described as follows: colorimetric ELISA, inhibition curves.
Text: as §1, §2

Experiment [5] has as its target T4, murine BAFF (Examples 22-23) (mouse, UniProt Q9WU72 127-309). The experiment is described as follows: colorimetric ELISA, inhibition curves.
Text: as §1, §2

Experiment [6] has as its target T1, human APRIL (Examples 21-23). The experiment is described as follows: SPR (Carterra LSA, HC30M chip). As to the method: (§3) The KD of a BAv9-1 CRD-IgG4 Fc fusion protein, and other BAFF or APRIL binding molecules, the BAFF/APRIL binding molecule Atacicept and a different recombinant TACI-Fc fusion protein RC18 (also known as Telitacicept), to human or murine BAFF or human or murine APRIL were determined by surface plasmon resonance (Carterra LSA, HC30M sensor chip).

In experiment [7] the target is T2, human BAFF (Examples 21-23). The experiment is described as follows: SPR (Carterra LSA, HC30M chip). The procedure:
as §3

Experiment [8] concerns the target T4, murine BAFF (Examples 22-23). The experiment is described as follows: SPR (Carterra LSA, HC30M chip). The procedure:
as §3

Experiment [9] addresses human BAFF-60mer (Adipogen) (human, UniProt Q9Y275 134-285). The experiment is described as follows: cell-based or functional assay.
The target in experiment [10] is T5, human APRIL (Acros Biosystems) (human, UniProt O75888 115-250, limits assumed).
T5 sequence: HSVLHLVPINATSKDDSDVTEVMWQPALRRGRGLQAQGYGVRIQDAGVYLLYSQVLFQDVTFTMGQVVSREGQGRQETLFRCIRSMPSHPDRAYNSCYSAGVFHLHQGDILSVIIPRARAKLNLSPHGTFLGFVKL
The experiment is described as follows: cell-based or functional assay.

In experiment [11] the target is human BAFF (Acros Biosystems) (human, UniProt Q9Y275 134-285). The experiment is described as follows: cell-based or functional assay.
The target in experiment [12] is T3, murine APRIL (Examples 22-23). The experiment is described as follows: SPR (Carterra LSA, HC30M chip); murine ligand (Table 13). As to the method:
as §3

In experiment [13] the target is T1, human APRIL (Examples 21-23). The experiment is described as follows: assay not given (Example 21).
In experiment [14] the target is T2, human BAFF (Examples 21-23). The experiment is described as follows: assay not given (Example 21).
Experiment [15] concerns the target T1, human APRIL (Examples 21-23). The experiment is described as follows: assay not given (Example 21). This is another data set of the same source.
Experiment [16] deals with T2, human BAFF (Examples 21-23). The experiment is described as follows: assay not given (Example 21). This is another data set of the same source.

T4 sequence (Q9WU72 127-309 limits assumed): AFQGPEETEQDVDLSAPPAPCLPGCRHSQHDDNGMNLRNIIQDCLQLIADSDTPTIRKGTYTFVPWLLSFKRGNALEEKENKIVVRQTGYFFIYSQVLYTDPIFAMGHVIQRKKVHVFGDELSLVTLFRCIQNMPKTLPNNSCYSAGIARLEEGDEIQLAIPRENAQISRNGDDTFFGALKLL

B1: BAv9-1 CRD-IgG4 Fc (Fc fusion)
chain: AGQCSQNEYFDHLIRACIPCQLRCSSNTPPLTCQRYCNAGVTNSVGGGGSAESKYGPPCPPCPAPEAAGGPSVFLFPPKPKDTLMISRTPEVTCVVVDVSQEDPEVQFNWYVDGVEVHNAKTKPREEQFNSTYRVVSVLTVLHQDWLNGKEYKCKVSNKGLPSSIEKTISKAKGQPREPQVYTLPPSQEEMTKNQVSLTCLVKGFYPSDIAVEWESNGQPENNYKTTPPVLDSDGSFFLYSRLTVDKSRWQEGNVFSCSVMHEALHNHYTQKSLSLSPGK
notes: mature expressed protein; also called BAv9-1 CRD-Ig Fc; exemplary BCMA CRD variant-IgG4 fusion protein
As a reminder, the IC50 is the concentration that gives 50% inhibition. A higher IC50 goes with weaker potency in that assay. By Kd is commonly meant a measure of binding affinity in units of concentration. Low values mean higher affinity, high ones lower affinity. Regarding B1, the “fold higher binding affinity compared to Atacicept” value in experiment [1] and in experiment [2] was 600 to 800 fold throughout. The figures for the IC50 in [3], in experiment [4] and in experiment [5] were 0.002 nM, 2.7 nM and 1.5 nM, respectively. Further, the Kd stood at 0.025 nM in experiment [6]; 0.117 nM in [7]; 0.031 nM in [8]; 0.00015 nM in experiment [12]; 0.00015 nM in [13]; 0.00024 nM in experiment [14]. The “IC50 for proliferation of stimulated B cells, Donor 1, BAFF-60mer + anti-IgM” value in [9] was determined as 0.835 nM. Also, in experiment [9], the “IC50 for proliferation of stimulated B cells, Donor 2, BAFF-60mer + anti-IgM” value stood at 0.577 nM. Moreover, the “IC50 for proliferation of stimulated B cells, Donor 3, BAFF-60mer + anti-IgM” value in [9] turned out to be 0.61 nM. Besides, in [10], the “IC50 for proliferation of stimulated B cells, Donor 1, APRIL + anti-IgM” value came out at 0.662 nM. In addition, the “IC50 for proliferation of stimulated B cells, Donor 2, APRIL + anti-IgM” value in experiment [10] turned out to be 0.226 nM. Also, the “IC50 for proliferation of stimulated B cells, Donor 3, APRIL + anti-IgM” value in experiment [10] came out at 0.366 nM. Moreover, the “IC50 for proliferation of stimulated B cells, Donor 1, BAFF + anti-IgM” value in [11] was 0.311 nM. Also, in experiment [11], the “IC50 for proliferation of stimulated B cells, Donor 2, BAFF + anti-IgM” value worked out at 0.000215 nM. In addition, the “IC50 for proliferation of stimulated B cells, Donor 3, BAFF + anti-IgM” value in experiment [11] turned out to be 0.0201 nM. Besides, the “fold higher binding affinity vs Atacicept” value in experiment [15] and in experiment [16] was 600 to 800 fold throughout.
